Test results: patent US20210009668A1 (ROCHE DIAGNOSTICS OPERATIONS, published 2021)
Positions count from the first letter of the chain named. In names and notes the source's numbering stands.

B1: parental anti-cTnT Fab fragment (wildtype TnT M-7 Fab, from antibody 12.1A11.11-7) (Fab, V domains shown)
VH: EVQLQQSGPELVKPGASVKMSCKASGYTFTDYYMKWVKQSHGKSLEWIGDINPNNGETFYNQKFKDKATLTVDKSSSTAYMQLNSLTSEDSAVYYCATRVFDYWGQGTTLTVSS
VL: DIVLTQSPASLAVSLGQRATISCKASQSVDYDGTSYMNWFQQKAGQPPKRLIYAASNLESGIPARFSGRGSGTDFALNIHPVEEEDAATYYCQQSNEDPYTFGGGTKLEIK
notes: also called wildtype Fab; TnT M-7 (wildtype) Fab
B2: anti-cTnT Fab mutant 12 (Y34I, F60W, Y104F) (Fab, V domains shown)
VH: B1 VH with Y33I, F59W, Y103F
VL: B1 VL
notes: also called combination 12; combination "12"
B3: anti-cTnT Fab mutant 7 (Y34F, Y104F) (Fab, V domains shown)
VH: B1 VH with Y33F, Y103F
VL: B1 VL
notes: also called combination 7
B4: anti-cTnT Fab mutant 5 (Y34F, F60W, V101Y + Y104F) (Fab, V domains shown)
VH: B1 VH with Y33F, F59W, V100Y, Y103F
VL: B1 VL
notes: also called combination 5
B5: anti-cTnT Fab mutant 19 (Y104F) (Fab, V domains shown)
VH: B1 VH with Y103F
VL: B1 VL
notes: also called combination 19
B6: anti-cTnT Fab mutant 22 (F60W, Y104F) (Fab, V domains shown)
VH: B1 VH with F59W, Y103F
VL: B1 VL
notes: also called combination 22
B7: anti-cTnT Fab mutant 16 (Y34I, V101Y + Y104F) (Fab, V domains shown)
VH: B1 VH with Y33I, V100Y, Y103F
VL: B1 VL
notes: also called combination 16
B8: anti-cTnT Fab mutant 23 (F60W, V101Y + Y104F) (Fab, V domains shown)
VH: B1 VH with F59W, V100Y, Y103F
VL: B1 VL
notes: it was tied to mutant 23 by the printed mutations; also called combination 23
B9: anti-cTnT Fab mutant 20 (V101Y + Y104F) (Fab, V domains shown)
VH: B1 VH with V100Y, Y103F
VL: B1 VL
notes: also called combination 20
B10: anti-cTnT Fab mutant 4 (Y34F, F60W, Y104F) (Fab, V domains shown)
VH: B1 VH with Y33F, F59W, Y103F
VL: B1 VL
notes: also called combination 4
B11: anti-cTnT Fab mutant 8 (Y34F, V101Y + Y104F) (Fab, V domains shown)
VH: B1 VH with Y33F, V100Y, Y103F
VL: B1 VL
notes: also called combination 8
B12: anti-cTnT Fab mutant 13 (Y34I, F60W, V101Y + Y104F) (Fab, V domains shown)
VH: B1 VH with Y33I, F59W, V100Y, Y103F
VL: B1 VL
notes: also called combination 13
B13: anti-cTnT Fab mutant 2 (Y34F, F60W) (Fab, V domains shown)
VH: B1 VH with Y33F, F59W
VL: B1 VL
notes: also called combination 2
B14: anti-cTnT Fab mutant 1 (Y34F) (Fab, V domains shown)
VH: B1 VH with Y33F
VL: B1 VL
notes: also called combination 1
B15: anti-cTnT Fab mutant 15 (Y34I, Y104F) (Fab, V domains shown)
VH: B1 VH with Y33I, Y103F
VL: B1 VL
notes: also called combination 15
B16: anti-cTnT Fab mutant 11 (Y34I, F60W, V101Y) (Fab, V domains shown)
VH: B1 VH with Y33I, F59W, V100Y
VL: B1 VL
notes: also called combination 11
B17: anti-cTnT Fab mutant 9 (Y34I) (Fab, V domains shown)
VH: B1 VH with Y33I
VL: B1 VL
notes: also called combination 9
B18: anti-cTnT Fab mutant 17 (F60W) (Fab, V domains shown)
VH: B1 VH with F59W
VL: B1 VL
notes: also called combination 17
B19: anti-cTnT Fab mutant 21 (F60W, V101Y) (Fab, V domains shown)
VH: B1 VH with F59W, V100Y
VL: B1 VL
notes: also called combination 21
B20: anti-cTnT Fab mutant 3 (Y34F, F60W, V101Y) (Fab, V domains shown)
VH: B1 VH with Y33F, F59W, V100Y
VL: B1 VL
notes: also called combination 3
B21: anti-cTnT Fab mutant 18 (V101Y) (Fab, V domains shown)
VH: B1 VH with V100Y
VL: B1 VL
notes: it was tied to mutant 18 by the printed mutation V101Y; also called combination 18

The binders below were run against T1, recombinant human cardiac troponin T (human, UniProt P45379 2-298) (assay: SPR (Biacore T200, 37 C), Fab captured, cTnT analyte).
T1 construct: In the ECL assay the cTnT came from the Troponin T hs CalSet calibrator; also called cTnT; TnT
Method: (§1) Detailed kinetic investigations were performed at 37° C. on a GE Healthcare T200 instrument. A Biacore CM-5 series S sensor was mounted into the instrument and was preconditioned according to the manufacturer's instructions. The system buffer was HBS-ET (10 mM HEPES (pH 7.4), 150 mM NaCl, 1 mM EDTA, 0.05% (w/v) Tween® 20). The sample buffer was the system buffer supplemented with 1 mg/ml CMD (Carboxymethyldextran, Fluka). In one embodiment an anti-human antibody capture system was established on the CMS biosensor. GAHF(ab′)2, (goat anti human F(ab′)2) (Code Nr.: 109-005-097, lot #13.12.2005, Jackson Immuno Research) was immobilized according to the manufacturer's instructions using NHS/EDC chemistry. 30 μg/ml GAHF(ab′)2 in 10 mM sodium acetate buffer (pH 5.0) were preconcentrated to the flow cells 1, 2, 3 and 4 and were immobilized with 10.000 RU GAHF(ab′)2. The sensor was subsequently saturated with 1 M ethanolamine pH 8.5.
Chimeric anti-TnT antibody fragments were periplasmatically expressed in E. coli cells as described and were lyzed by methods known (for technical details see: Andersen, D. C. & Reilly, D. E. (2004); Production technologies for monoclonal antibodies and their fragments. Curr Opin Biotechnol 15, 456-62). The lysates were diluted 1:20 in sample buffer. Fab fragments were captured via their humanized framework regions from the expression lysates on the biosensor at a flow rate of 10 μl/min for 1 min followed by a 2 min washing step with 10-fold concentrated HBS-EP buffer at 30 μl/min. The Fab fragment capture level (CL) in response units (RU) was monitored. Recombinant human TnT (Roche, 37 kDa) was diluted in sample buffer at 90 nM and a concentration series was produced with […], 30 nM, 11 nM, 3.3 nM, 1.1 nM, 0 nM, 3.3 nM TnT concentration. The analyte concentration series were 80 μl/min for 3 min association phase and the dissociation phase was monitored for 3 min.
The kinetic parameters ka [1/Ms], kd [1/s], t1/2 diss [min], KD [M] and the binding stoichiometry (Molar Ratio) (for details see: Schraeml, M. & Biehl, M. (2012); Kinetic screening in the antibody development process. Methods Mol Biol 901, 171-81.) of the cTnT analyte were determined for each Fab fragment mutant with the Biaevaluation Software (GE healthcare) according to the manufacturer's instructions.

Question: What does the source list for B1?
Answer: Kd: 0.58 nM; MR (Molar Ratio): 0.6; koff: 0.0014 s⁻¹; kon: 2.5e+06 M⁻¹ s⁻¹; t/2-diss: 8 min

Question: For B2, which Kd is on record?
Answer: 0.32 nM

Question: What about the “MR (Molar Ratio)” value of the same binder?
Answer: 0.5

Question: What about the koff of the same binder?
Answer: 0.00037 s⁻¹

Question: And the kon?
Answer: 1.18e+06 M⁻¹ s⁻¹

Question: And the t/2-diss?
Answer: 31 min

Question: Which Kd does the source give for B3 here?
Answer: 0.45 nM

Question: And the “MR (Molar Ratio)” value?
Answer: 0.7

Question: What about the koff of the same binder?
Answer: 0.0011 s⁻¹

Question: And the kon?
Answer: 2.4e+06 M⁻¹ s⁻¹

Question: And the t/2-diss?
Answer: 11 min

Question: B4 was tested. Which Kd did it give?
Answer: 0.23 nM

Question: What about the “MR (Molar Ratio)” value of the same binder?
Answer: 0.7

Question: What about the koff of the same binder?
Answer: 0.00057 s⁻¹

Question: What about the kon of the same binder?
Answer: 2.4e+06 M⁻¹ s⁻¹

Question: What about the t/2-diss of the same binder?
Answer: 20 min

Question: B5 was tested. Which Kd did it give?
Answer: 0.46 nM

Question: And the “MR (Molar Ratio)” value?
Answer: 0.8

Question: And the koff?
Answer: 0.0014 s⁻¹

Question: What about the kon of the same binder?
Answer: 2.9e+06 M⁻¹ s⁻¹

Question: And the t/2-diss?
Answer: 8 min

Question: For B6, which “MR (Molar Ratio)” value is on record?
Answer: 0.7

Question: What about the koff of the same binder?
Answer: 0.0011 s⁻¹

Question: What about the kon of the same binder?
Answer: 3e+06 M⁻¹ s⁻¹

Question: What about the t/2-diss of the same binder?
Answer: 10 min

Question: How did the Kd turn out when B7 was run?
Answer: 3.4 nM

Question: What about the “MR (Molar Ratio)” value of the same binder?
Answer: 0.6

Question: And the koff?
Answer: 0.0059 s⁻¹

Question: What about the kon of the same binder?
Answer: 1.7e+06 M⁻¹ s⁻¹

Question: And the t/2-diss?
Answer: 2 min

Question: What does the source list for B8?
Answer: Kd: 1.2 nM; MR (Molar Ratio): 0.6; koff: 0.0034 s⁻¹; kon: 2.8e+06 M⁻¹ s⁻¹; t/2-diss: 3 min

Question: B9 was tested. Which Kd did it give?
Answer: 1.1 nM

Question: And the “MR (Molar Ratio)” value?
Answer: 0.6

Question: And the koff?
Answer: 0.0034 s⁻¹

Question: And the kon?
Answer: 3.1e+06 M⁻¹ s⁻¹

Question: And the t/2-diss?
Answer: 3 min

Question: B10 was tested. Which Kd did it give?
Answer: 0.27 nM

Question: And the “MR (Molar Ratio)” value?
Answer: 0.7

Question: And the koff?
Answer: 0.00072 s⁻¹

Question: What about the kon of the same binder?
Answer: 2.7e+06 M⁻¹ s⁻¹

Question: And the t/2-diss?
Answer: 16 min

Question: Which results are given for B11?
Answer: Kd: 0.2 nM; MR (Molar Ratio): 0.7; koff: 0.00052 s⁻¹; kon: 2.7e+06 M⁻¹ s⁻¹; t/2-diss: 22 min

Question: B12 was tested. Which Kd did it give?
Answer: 0.62 nM

Question: What about the “MR (Molar Ratio)” value of the same binder?
Answer: 0.7

Question: And the koff?
Answer: 0.0019 s⁻¹

Question: What about the kon of the same binder?
Answer: 3e+06 M⁻¹ s⁻¹

Question: And the t/2-diss?
Answer: 6 min

Question: How did the Kd turn out when B13 was run?
Answer: 0.46 nM

Question: What about the “MR (Molar Ratio)” value of the same binder?
Answer: 0.7

Question: What about the koff of the same binder?
Answer: 0.001 s⁻¹

Question: And the kon?
Answer: 2.2e+06 M⁻¹ s⁻¹

Question: What about the t/2-diss of the same binder?
Answer: 11 min

Question: How did the Kd turn out when B14 was run?
Answer: 0.62 nM

Question: And the “MR (Molar Ratio)” value?
Answer: 0.7

Question: What about the koff of the same binder?
Answer: 0.0014 s⁻¹

Question: And the kon?
Answer: 2.3e+06 M⁻¹ s⁻¹

Question: And the t/2-diss?
Answer: 8 min

Question: What does the source list for B15?
Answer: Kd: 1.1 nM; MR (Molar Ratio): 0.7; koff: 0.0023 s⁻¹; kon: 2.2e+06 M⁻¹ s⁻¹; t/2-diss: 5 min

Question: Which results are given for B16?
Answer: Kd: 1 nM; MR (Molar Ratio): 0.7; koff: 0.0022 s⁻¹; kon: 2.2e+06 M⁻¹ s⁻¹; t/2-diss: 5 min

Question: How did the Kd turn out when B17 was run?
Answer: 1.2 nM

Question: And the “MR (Molar Ratio)” value?
Answer: 0.7

Question: And the koff?
Answer: 0.0023 s⁻¹

Question: And the kon?
Answer: 2e+06 M⁻¹ s⁻¹

Question: And the t/2-diss?
Answer: 5 min

Question: For B18, which Kd is on record?
Answer: 0.54 nM

Question: And the “MR (Molar Ratio)” value?
Answer: 0.7

Question: What about the koff of the same binder?
Answer: 0.0016 s⁻¹

Question: What about the kon of the same binder?
Answer: 2.9e+06 M⁻¹ s⁻¹

Question: What about the t/2-diss of the same binder?
Answer: 7 min

Question: What does the source list for B19?
Answer: Kd: 1.6 nM; MR (Molar Ratio): 0.5; koff: 0.0043 s⁻¹; kon: 2.7e+06 M⁻¹ s⁻¹

Question: With B20 as the binder, how does the Kd read?
Answer: 0.37 nM

Question: And the “MR (Molar Ratio)” value?
Answer: 0.7

Question: And the koff?
Answer: 0.00079 s⁻¹

Question: What about the kon of the same binder?
Answer: 2.1e+06 M⁻¹ s⁻¹

Question: And the t/2-diss?
Answer: 15 min

Question: What does the source list for B21?
Answer: Kd: 1.6 nM; MR (Molar Ratio): 0.5; koff: 0.0047 s⁻¹; kon: 2.9e+06 M⁻¹ s⁻¹; t/2-diss: 2 min

The binders below were run against T1, recombinant human cardiac troponin T (assay: SPR (Biacore T200, 37 C), Fab captured, cTnT analyte; Fab fragment).
Method: as §1, with “The sensor was subsequently saturated with 1 M ethanolamine pH 8.5.” left out
Chimeric anti-TnT antibody fragments were periplasmatically expressed in E. coli cells as described and were lyzed by methods known (for technical details see: Andersen, D. C. & Reilly, D. E. (2004); Production technologies for monoclonal antibodies and their fragments. Curr Opin Biotechnol 15, 456-62). […] The Fab fragment capture level (CL) in response units (RU) was monitored. […] The analyte concentration series were 80 μl/min for 3 min association phase and the dissociation phase was monitored for 3 min. […]

Question: B6 was tested. Which Kd did it give?
Answer: 0.38 nM
